The supplement of paper PMC5998384

How the values were obtained:
HeLa Kyoto [1] = assay: solubility in G1/S (NP-40 vs SDS abundance) (log2 ratio); higher = more soluble; conditions: cell cycle stage: G1/S
HeLa Kyoto [2] = assay: melting temperature (median over replicates), in situ; higher = more thermally stable
HeLa Kyoto [3] = assay: solubility change mitosis vs G1/S (difference of NP-40 vs SDS log2 ratios) (log2 ratio difference); higher = more soluble in mitosis
HeLa Kyoto [4] = assay: thermal stability score vs G1/S (z-score of summed log2 fold changes over temperatures); higher = more thermally stable than in G1/S
[5] = cell cycle stage: early G1 (4.5 h after nocodazole release)
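For melting temperature (median over replicates), in situ in this document: HeLa Kyoto cells synchronized by double thymidine or nocodazole block, proteins quantified by TMT10plex mass spectrometry, three independent biological replicates.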
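For solubility change mitosis vs G1/S (difference of NP-40 vs SDS log2 ratios) in this document: synchronized HeLa Kyoto cells (double thymidine block for G1/S, nocodazole release for mitosis), protein amounts in NP-40 versus SDS lysates quantified by mass spectrometry, three biological replicates.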
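For solubility in G1/S (NP-40 vs SDS abundance) in this document: HeLa Kyoto cells arrested at G1/S by double thymidine block, proteins quantified by TMT10plex mass spectrometry in mild NP-40 versus SDS extracts, three biological replicates.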
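For thermal stability score vs G1/S (z-score of summed log2 fold changes over temperatures) in this document: synchronized HeLa Kyoto cells, proteins quantified by TMT10plex mass spectrometry, three biological replicates, mitosis taken 0.5 h after nocodazole release, G1/S directly after double thymidine block.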

Sequence	solubility in G1/S (log2) (HeLa Kyoto [1])	melting temperature (HeLa Kyoto [2]; cell cycle stage: G1/S) [°C]	melting temperature (HeLa Kyoto [2]; cell cycle stage: mitosis) [°C]	solubility change mitosis (log2) (HeLa Kyoto [3])	thermal stability score (HeLa Kyoto [4]; [5])	thermal stability score (HeLa Kyoto [4]; cell cycle stage: mitosis)
MFSWLKRGGARGQQPEAIRTVTSALKELYRTKLLPLEEHYRFGAFHSPALEDADFDGKPMVLVAGQYSTGKTSFIQYLLEQEVPGSRVGPEPTTDCFVAVMHGDTEGTVPGNALVVDPDKPFRKLNPFGNTFLNRFMCAQLPNQVLESISIIDTPGILSGAKQRVSRGYDFPAVLRWFAERVDLIILLFDAHKLEISDEFSEAIGALRGHEDKIRVVLNKADMVETQQLMRVYGALMWALGKVVGTPEVLRVYIGSFWSQPLLVPDNRRLFELEEQDLFRDIQGLPRHAALRKLNDLVKRARLVRVHAYIISYLKKEMPSVFGKENKKKQLILKLPVIFAKIQLEHHISPGDFPDCQKMQELLMAHDFTKFHSLKPKLLEALDEMLTHDIAKLMPLLRQEELESTEVGVQGGAFEGTHMGPFVERGPDEAMEDGEEGSDDEAEWVVTKDKSKYDEIFYNLAPADGKLSGSKAKTWMVGTKLPNSVLGRIWKLSDVDRDGMLDDEEFALASHLIEAKLEGHGLPANLPRRLVPPSKRRHKGSAE [EHD2]	0.231	48.9	49.5	-0.164	1.58	2.05
MFVPCGESAPDLAGFTLLMPAVSVGNVGQLAMDLIISTLNMSKIGYFYTDCLVPMVGNNPYATTEGNSTELSINAEVYSLPSRKLVALQLRSIFIKYKSKPFCEKLLSWVKSSGCARVIVLSSSHSYQRNDLQLRSTPFRYLLTPSMQKSVQNKIKSLNWEEMEKSRCIPEIDDSEFCIRIPGGGITKTLYDESCSKEIQMAVLLKFVSEGDNIPDALGLVEYLNEWLQILKPLSDDPTVSASRWKIPSSWRLLFGSGLPPALF [PSMG2]	0.264	54.2	53.9	-0.0561	-0.904	-2.71
MFWKFDLHSSSHIDTLLEREDVTLKELMDEEDVLQECKAQNRKLIEFLLKAECLEDLVSFIIEEPPQDMDEKIRYKYPNISCELLTSDVSQMNDRLGEDESLLMKLYSFLLNDSPLNPLLASFFSKVLSILISRKPEQIVDFLKKKHDFVDLIIKHIGTSAIMDLLLRLLTCIEPPQPRQDVLNWLNEEKIIQRLVEIVHPSQEEDRHSNASQSLCEIVRLSRDQMLQIQNSTEPDPLLATLEKQEIIEQLLSNIFHKEKNESAIVSAIQILLTLLETRRPTFEGHIEICPPGMSHSACSVNKSVLEAIRGRLGSFHELLLEPPKKSVMKTTWGVLDPPVGNTRLNVIRLISSLLQTNTSSINGDLMELNSIGVILNMFFKYTWNNFLHTQVEICIALILASPFENTENATITDQDSTGDNLLLKHLFQKCQLIERILEAWEMNEKKQAEGGRRHGYMGHLTRIANCIVHSTDKGPNSALVQQLIKDLPDEVRERWETFCTSSLGETNKRNTVDLVTTCHIHSSSDDEIDFKETGFSQDSSLQQAFSDYQMQQMTSNFIDQFGFNDEKFADQDDIGNVSFDRVSDINFTLNTNESGNIALFEACCKERIQQFDDGGSDEEDIWEEKHIAFTPESQRRSSSGSTDSEESTDSEEEDGAKQDLFEPSSANTEDKMEVDLSEPPNWSANFDVPMETTHGAPLDSVGSDVWSTEEPMPTKETGWASFSEFTSSLSTKDSLRSNSPVEMETSTEPMDPLTPSAAALAVQPEAAGSVAMEASSDGEEDAESTDKVTETVMNGGMKETLSLTVDAKTETAVFKSEEGKLSTSQDAACKDAEECPETAEAKCAAPRPPSSSPEQRTGQPSAPGDTSVNGPV [PPP6R3]	-0.236	54.9	54.1	-0.12	-1.86	-1.84
MFWKFDLNTTSHVDKLLDKEHVTLQELMDEDDILQECKAQNQKLLDFLCRQQCMEELVSLITQDPPLDMEEKVRFKYPNTACELLTCDVPQISDRLGGDESLLSLLYDFLDHEPPLNPLLASFFSKTIGNLIARKTEQVITFLKKKDKFISLVLKHIGTSALMDLLLRLVSCVEPAGLRQDVLHWLNEEKVIQRLVELIHPSQDEDRQSNASQTLCDIVRLGRDQGSQLQEALEPDPLLTALESQDCVEQLLKNMFDGDRTESCLVSGTQVLLTLLETRRVGTEGLVDSFSQGLERSYAVSSSVLHGIEPRLKDFHQLLLNPPKKKAILTTIGVLEEPLGNARLHGARLMAALLHTNTPSINQELCRLNTMDLLLDLFFKYTWNNFLHFQVELCIAAILSHAAREERTEASGSESRVEPPHENGNRSLETPQPAASLPDNTMVTHLFQKCCLVQRILEAWEANDHTQAAGGMRRGNMGHLTRIANAVVQNLERGPVQTHISEVIRGLPADCRGRWESFVEETLTETNRRNTVDLVSTHHLHSSSEDEDIEGAFPNELSLQQAFSDYQIQQMTANFVDQFGFNDEEFADQDDNINAPFDRIAEINFNIDADEDSPSAALFEACCSDRIQPFDDDEDEDIWEDSDTRCAARVMARPRFGAPHASESCSKNGPERGGQDGKASLEAHRDAPGAGAPPAPGKKEAPPVEGDSEGAMWTAVFDEPANSTPTAPGVVRDVGSSVWAAGTSAPEEKGWAKFTDFQPFCCSESGPRCSSPVDTECSHAEGSRSQGPEKASQASYFAVSPASPCAWNVCVTRKAPLLASDSSSSGGSHSEDGDQKAASAMDAVSRGPGREAPPLPTVARTEEAVGRVGCADSRLLSPACPAPKEVTAAPAVAVPPEATVAITTALSKAGPAIPTPAVSSALAVAVPLGPIMAVTAAPAMVATLGTVTKDGKTDAPPEGAALNGPV [PPP6R2]	0.0656	54.5	52.8	-0.119	-0.206	-1.5
MGALVIRGIRNFNLENRAEREISKMKPSVAPRHPSTNSLLREQISLYPEVKGEIARKDEKLLSFLKDVYVDSKDPVSSLQVKAAETCQEPKEFRLPKDHHFDMINIKSIPKGKISIVEALTLLNNHKLFPETWTAEKIMQEYQLEQKDVNSLLKYFVTFEVEIFPPEDKKAIRSK [NDUFAF4]	0.314	50.4	54.2	-0.0449	-2.2	-2.98
MGAQLSTLGHMVLFPVWFLYSLLMKLFQRSTPAITLESPDIKYPLRLIDREIISHDTRRFRFALPSPQHILGLPVGQHIYLSARIDGNLVVRPYTPISSDDDKGFVDLVIKVYFKDTHPKFPAGGKMSQYLESMQIGDTIEFRGPSGLLVYQGKGKFAIRPDKKSNPIIRTVKSVGMIAGGTGITPMLQVIRAIMKDPDDHTVCHLLFANQTEKDILLRPELEELRNKHSARFKLWYTLDRAPEAWDYGQGFVNEEMIRDHLPPPEEEPLVLMCGPPPMIQYACLPNLDHVGHPTERCFVF [CYB5R3]	-0.215	56	55.8	-0.158	-1.92	-2.76
MGASARLLRAVIMGAPGSGKGTVSSRITTHFELKHLSSGDLLRDNMLRGTEIGVLAKAFIDQGKLIPDDVMTRLALHELKNLTQYSWLLDGFPRTLPQAEALDRAYQIDTVINLNVPFEVIKQRLTARWIHPASGRVYNIEFNPPKTVGIDDLTGEPLIQREDDKPETVIKRLKAYEDQTKPVLEYYQKKGVLETFSGTETNKIWPYVYAFLQTKVPQRSQKASVTP [AK3]	0.43	54.3	54.2	0.00633	-1.02	-2.48
MGAVWSALLVGGGLAGALFVWLLRGGPGDTGKDGDAEQEKDAPLGGAAIPGGHQSGSSGLSPGPSGQELVTKPEHLQESNGHLISKTKDLGKLQAASWRLQNPSREVCDNSREHVPSGQFPDTEAPATSETSNSRSYSEVSRNESLESPMGEWGFQKGQEISAKAATCFAEKLPSSNLLKNRAKEEMSLSDLNSQDRVDHEEWEMVPRHSSWGDVGVGGSLKAPVLNLNQGMDNGRSTLVEARGQQVHGKMERVAVMPAGSQQVSVRFQVHYVTSTDVQFIAVTGDHECLGRWNTYIPLHYNKDGFWSHSIFLPADTVVEWKFVLVENGGVTRWEECSNRFLETGHEDKVVHAWWGIH [STBD1]	-0.336	50.7	50.3	-0.0441	0.314	-0.125
MGCCSSASSAAQSSKREWKPLEDRSCTDIPWLLLFILFCIGMGFICGFSIATGAAARLVSGYDSYGNICGQKNTKLEAIPNSGMDHTQRKYVFFLDPCNLDLINRKIKSVALCVAACPRQELKTLSDVQKFAEINGSALCSYNLKPSEYTTSPKSSVLCPKLPVPASAPIPFFHRCAPVNISCYAKFAEALITFVSDNSVLHRLISGVMTSKEIILGLCLLSLVLSMILMVIIRYISRVLVWILTILVILGSLGGTGVLWWLYAKQRRSPKETVTPEQLQIAEDNLRALLIYAISATVFTVILFLIMLVMRKRVALTIALFHVAGKVFIHLPLLVFQPFWTFFALVLFWVYWIMTLLFLGTTGSPVQNEQGFVEFKISGPLQYMWWYHVVGLIWISEFILACQQMTVAGAVVTYYFTRDKRNLPFTPILASVNRLIRYHLGTVAKGSFIITLVKIPRMILMYIHSQLKGKENACARCVLKSCICCLWCLEKCLNYLNQNAYTATAINSTNFCTSAKDAFVILVENALRVATINTVGDFMLFLGKVLIVCSTGLAGIMLLNYQQDYTVWVLPLIIVCLFAFLVAHCFLSIYEMVVDVLFLCFAIDTKYNDGSPGREFYMDKVLMEFVENSRKAMKEAGKGGVADSRELKPMASGASSA [SLC44A1]	-0.0157	55.7	–	-0.147	-1.35	-2.05
MGCTLSAEDKAAVERSKMIDRNLREDGEKAAKEVKLLLLGAGESGKSTIVKQMKIIHEDGYSEDECKQYKVVVYSNTIQSIIAIIRAMGRLKIDFGEAARADDARQLFVLAGSAEEGVMTPELAGVIKRLWRDGGVQACFSRSREYQLNDSASYYLNDLDRISQSNYIPTQQDVLRTRVKTTGIVETHFTFKDLYFKMFDVGGQRSERKKWIHCFEGVTAIIFCVALSDYDLVLAEDEEMNRMHESMKLFDSICNNKWFTETSIILFLNKKDLFEEKIKRSPLTICYPEYTGSNTYEEAAAYIQCQFEDLNRRKDTKEIYTHFTCATDTKNVQFVFDAVTDVIIKNNLKECGLY [GNAI3]	-0.638	53.5	54.2	-0.175	0.761	0.823
MGDERPHYYGKHGTPQKYDPTFKGPIYNRGCTDIICCVFLLLAIVGYVAVGIIAWTHGDPRKVIYPTDSRGEFCGQKGTKNENKPYLFYFNIVKCASPLVLLEFQCPTPQICVEKCPDRYLTYLNARSSRDFEYYKQFCVPGFKNNKGVAEVLQDGDCPAVLIPSKPLARRCFPAIHAYKGVLMVGNETTYEDGHGSRKNITDLVEGAKKANGVLEARQLAMRIFEDYTVSWYWIIIGLVIAMAMSLLFIILLRFLAGIMVWVMIIMVILVLGYGIFHCYMEYSRLRGEAGSDVSLVDLGFQTDFRVYLHLRQTWLAFMIILSILEVIIILLLIFLRKRILIAIALIKEASRAVGYVMCSLLYPLVTFFLLCLCIAYWASTAVFLSTSNEAVYKIFDDSPCPFTAKTCNPETFPSSNESRQCPNARCQFAFYGGESGYHRALLGLQIFNAFMFFWLANFVLALGQVTLAGAFASYYWALRKPDDLPAFPLFSAFGRALRYHTGSLAFGALILAIVQIIRVILEYLDQRLKAAENKFAKCLMTCLKCCFWCLEKFIKFLNRNAYIMIAIYGTNFCTSARNAFFLLMRNIIRVAVLDKVTDFLFLLGKLLIVGSVGILAFFFFTHRIRIVQDTAPPLNYYWVPILTVIVGSYLIAHGFFSVYGMCVDTLFLCFLEDLERNDGSAERPYFMSSTLKKLLNKTNKKAAES [SLC44A2]	0.0147	60.2	60.1	0.0871	-1.29	-2.25
MGDKIWLPFPVLLLAALPPVLLPGAAGFTPSLDSDFTFTLPAGQKECFYQPMPLKASLEIEYQVLDGAGLDIDFHLASPEGKTLVFEQRKSDGVHTVETEVGDYMFCFDNTFSTISEKVIFFELILDNMGEQAQEQEDWKKYITGTDILDMKLEDILESINSIKSRLSKSGHIQTLLRAFEARDRNIQESNFDRVNFWSMVNLVVMVVVSAIQVYMLKSLFEDKRKSRT [TMED5]	0.107	54.2	55.5	-0.206	2.08	1.93
